According to patent publication US20170037440A1 (MEDIZINISCHE HOCHSCHULE HANNOVER, published 2017):

Molecular target: the molecule itself
Experiment: analytical size exclusion chromatography, self-association

B1: Δ69-CsaBco-His6 (enzyme)
chain: MLIPINFFNFEYIVKKLNNQNAIGVYILPSNLTLKPALCILESHKEDFLNKFLLTISSENLKLQYKFNGQIKNPKSVNEIWTDLFSIAHVDMKLSTDRTLSSSISQFWFRLEFCKEDKDFILFPTANRYSRKLWKHSIKNNQLFKEGIRNYSEISSLPYEEDHNFDIDLVFTWVNSEDKNWQELYKKYKPDFNSDATSTSRFLSRDELKFALRSWEMNGSFIRKIFIVSNCAPPAWLDLNNPKIQWVYHEEIMPQSALPTFSSHAIETSLHHIPGISNYFIYSNDDFLLTKPLNKDNFFYSNGIAKLRLEAWGNVNGECTEGEPDYLNGARNANTLLEKEFKKFTTKLHTHSPQSMRTDILFEMEKKYPEEFNRTLHNKFRSLDDIAVTGYLYHHYALLSGRALQSSDKTELVQQNHDFKKKLNNVVTLTKERNFDKLPLSVCINDGADSHLNEEWNVQVIKFLETLFPLPSSFEKLEHHHHHH
notes: also called ΔN69-CsaB; dN69-CsaB
B1: binds.
